According to patent publication US20070197457A1:

Assays:
[1] = molecular target: SMAD1 (wild-type, full-length R-SMAD); experiment: cell-based or functional assay
[2] = molecular target: GAL4 DNA binding domain fused in-frame to full-length SMAD1 (UniProt P04386); experiment: cell-based or functional assay

Substance | SMAD1-SBE CAT reporter (SMAD1-mediated transcription), maximum reduction [1] [%] | GAL4/UAS-luciferase reporter, caALK6-receptor-mediated trans-activation of SMAD1, maximum inhibition [2] | GAL4/UAS-luciferase reporter, SMAD trans-activation activity at higher amounts of TAK1dn [2] [%] | GAL4/UAS-luciferase reporter, SMAD trans-activation, increase at low concentrations of TAK1dn [2] [%]
constitutively active TAK1 (TAK1ca) lacking the 22 N-terminal amino acids (from UniProt Q62073 23-579) (enzyme) | 10 | 40 |  | 
dominant-negative TAK1 (TAK1dn) mutant (K63W) (from UniProt Q62073 1-579) (enzyme) |  |  | 70 | 35
